Test results as given in publication PMC6209228, “Crystal structure and functional characterization of a cold-active acetyl xylan esterase (PbAcE) from psychrophilic soil microbe Paenibacillus sp” (PLoS ONE, 2018).
Blank lines part the entries; values can stand above or below the molecule they belong to.

How the values were obtained:
[1] = molecular target: T1, PbAcE (Paenibacillus sp. R4, UniProt A0A452CSP2); assay: p-nitrophenol release at […] nm, initial rates, double reciprocal plot; assay type: biochemical; conditions: 20 mM Tris-HCl, 150 mM NaCl, pH 7.4; free enzyme
T1 construct: gene cloned in pET-28a (NdeI/XhoI), N-terminal His6 tag cut by thrombin, E. coli BL21(DE3); ~36 kDa monomer, hexamer 234 kDa; 1896 residues modelled in six chains; primers encode N-terminus MPNVDMP and C-terminus IEAYL; catalytic triad Ser185, Asp274, His303

[2] = molecular target: cold-active acetyl xylan esterase (PbAcE) from Paenibacillus sp. R4 (Paenibacillus sp. R4); assay: AUC; sedimentation velocity, 20°C, 0.5 mg/ml PbAcE, 20 mM Tris-HCl pH 8.0, 150 mM NaCl, 45,000 rpm, SEDFIT
[3] = substrate: CCCC(=O)Oc1ccc([N+](=O)[O-])cc1; assay: purified protein; assay type: biochemical, Paenibacillus sp. R4; conditions: 20 mM Tris-HCl, 150 mM NaCl, pH 7.4, free enzyme

Molecule: CC(=O)Oc1ccc([N+](=O)[O-])cc1 [pNP-C2, p-nitrophenyl acetate]
Km [1]: initial kinetic studies were performed for pNP-C2 and pNP-C4

stoichiometry N [2]: 6
Molecule: cold-active acetyl xylan esterase (PbAcE) from Paenibacillus sp. R4 (enzyme)

B1: PbAcE (Paenibacillus sp. R4) (protein)
chain: MPNVDMPLSQLQDYKPELTNETDFDLFWDNAKALSNQKPLHAQVNLVQDYPLKSISIYDVVYDGADGTPIHGWYVTPKGEHQPGSLPVLVKYHGYSGNRGYPNELLQWASMGMAALAIDVRGQGGVTPDRAEYPQGGIPGWMTLGILDPASYYYKQVYLDCIRALDFVCSREEVDASRIAVYGGSQGGGLALAAAGLDSRPKLALPVFPFLCHFRRSVEIHASGPYVEIKNWFRRYDPEHRQEEQVYRTLSYFDGMNMASRIKARTLMAITLQDITCPPSTCFAAYNHLAGPKEVRLYHDYGHEGLPFHEEAMMRFIEAYL
notes: gene cloned in pET-28a (NdeI/XhoI), N-terminal His6 tag cut by thrombin, E. coli BL21(DE3); ~36 kDa monomer, hexamer 234 kDa; 1896 residues modelled in six chains; primers encode N-terminus MPNVDMP and C-terminus IEAYL; catalytic triad Ser185, Asp274, His303
Km [3]: 1230 ± 330 µM | kcat [3]: 0.19 ± 0.02 s⁻¹
